{
  "source": "the supplement of paper PMC7877785",
  "experiment": "self-splicing fitness, log relative to wild type (ln ratio); higher = more splicing; Tetrahymena group I intron in knt gene, E. coli kanamycin selection, DiMSum; sequences stand for … in CUCUCU…GGAGGGAAAAGUUAUCAGGCAUGCACCUGGUAGCUAGUCUUUAAACCAAUAGAUUGCAUCGGUUUAAAAGGCAAGACCGUCAAAUUGCGGGAAAGGGGUCAACAGCCGUUCAGUACCAAGUCUCAGGGGAAACUUUGAGAUGGCCUUGCAAAGGGUAUGGUAAUAAGCUGACGGACAUGGUCCUAACCACGCAGCCAAGUCCUAAGUCAACAGAUCUUCUGUUGAUAUGGAUGCAGUUCACAGACUAAAUGUCGGUCGGGGAAGAUGUAUUCUUCUCAUAAGAUAUAGUCGGACCUCUCCUUAAUGGGAGCUAGCGGAUGAAGUGAUGCAACACUGGAGCCGCUGGGAACUAAUUUGUAUGCGAAAGUAUAUUGAUUAGUUUUGGAGUACUCGUGGUCG",
  "outline": "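The eight P1ex-region nucleotides of an intron in the knt kanamycin-resistance gene on pET-22b(+) were all randomised and the library put into E. coli BL21(DE3). Six replicate transformations were grown overnight at 37°C or 30°C on LB agar with or without 25 μg/mL kanamycin, together with 100 μg/mL carbenicillin, 50 μM IPTG and 0.2% rhamnose. Colonies were pooled and amplicon-sequenced on an Illumina HiSeq 2500. Fitness from DiMSum is the error-weighted combination of wild-type-normalised replicate fold changes, kanamycin over none.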",
  "note": "± gives the uncertainty stated by the source.",
  "data": [
    {"sequence": "UUUGAGCAAUAUUACGAAGA", "values": [
      {"measurement": "self-splicing fitness (ln)", "setting": "30 °C", "value": "-2.31 ± 0.44"},
      {"measurement": "self-splicing fitness (ln)", "setting": "37 °C", "value": "-1.55 ± 0.38"}
    ]},
    {"sequence": "UUUGAGCAAUAUUACGACUU", "values": [
      {"measurement": "self-splicing fitness (ln)", "setting": "30 °C", "value": "-3.13 ± 0.34"},
      {"measurement": "self-splicing fitness (ln)", "setting": "37 °C", "value": "-2.28 ± 0.37"}
    ]},
    {"sequence": "UUUGAGCAAUAUUACGAGCU", "values": [
      {"measurement": "self-splicing fitness (ln)", "setting": "30 °C", "value": "-2.69 ± 0.39"}
    ]},
    {"sequence": "UUUGAGCAAUAUUACGAUUA", "values": [
      {"measurement": "self-splicing fitness (ln)", "setting": "30 °C", "value": "-2.13 ± 0.41"},
      {"measurement": "self-splicing fitness (ln)", "setting": "37 °C", "value": "-2.41 ± 0.36"}
    ]},
    {"sequence": "UUUGAGCAAUAUUACGCAGA", "values": [
      {"measurement": "self-splicing fitness (ln)", "setting": "37 °C", "value": "-1.51 ± 0.32"}
    ]},
    {"sequence": "UUUGAGCAAUAUUACGCCCU", "values": [
      {"measurement": "self-splicing fitness (ln)", "setting": "30 °C", "value": "-1.25 ± 0.41"},
      {"measurement": "self-splicing fitness (ln)", "setting": "37 °C", "value": "-1.96 ± 0.41"}
    ]},
    {"sequence": "UUUGAGCAAUAUUACGGAAC", "values": [
      {"measurement": "self-splicing fitness (ln)", "setting": "30 °C", "value": "-1.63 ± 0.16"},
      {"measurement": "self-splicing fitness (ln)", "setting": "37 °C", "value": "-1.2 ± 0.24"}
    ]},
    {"sequence": "UUUGAGCAAUAUUACGGAUG", "values": [
      {"measurement": "self-splicing fitness (ln)", "setting": "30 °C", "value": "-2.66 ± 0.21"}
    ]},
    {"sequence": "UUUGAGCAAUAUUACGGCUG", "values": [
      {"measurement": "self-splicing fitness (ln)", "setting": "30 °C", "value": "-0.955 ± 0.11"},
      {"measurement": "self-splicing fitness (ln)", "setting": "37 °C", "value": "-0.634 ± 0.17"}
    ]},
    {"sequence": "UUUGAGCAAUAUUACGGUCC", "values": [
      {"measurement": "self-splicing fitness (ln)", "setting": "30 °C", "value": "-3.88 ± 0.28"},
      {"measurement": "self-splicing fitness (ln)", "setting": "37 °C", "value": "-1.8 ± 0.23"}
    ]},
    {"sequence": "UUUGAGCAAUAUUACGGUCU", "values": [
      {"measurement": "self-splicing fitness (ln)", "setting": "37 °C", "value": "-2.63 ± 0.41"}
    ]},
    {"sequence": "UUUGAGCAAUAUUACGGUGG", "values": [
      {"measurement": "self-splicing fitness (ln)", "setting": "30 °C", "value": "-2.98 ± 0.31"}
    ]},
    {"sequence": "UUUGAGCAAUAUUACGGUUU", "values": [
      {"measurement": "self-splicing fitness (ln)", "setting": "30 °C", "value": "-3.23 ± 0.48"},
      {"measurement": "self-splicing fitness (ln)", "setting": "37 °C", "value": "-1.92 ± 0.32"}
    ]},
    {"sequence": "UUUGAGCAAUAUUACGUAAU", "values": [
      {"measurement": "self-splicing fitness (ln)", "setting": "30 °C", "value": "-3.94 ± 0.43"},
      {"measurement": "self-splicing fitness (ln)", "setting": "37 °C", "value": "-1.65 ± 0.23"}
    ]},
    {"sequence": "UUUGAGCAAUAUUACGUCAA", "values": [
      {"measurement": "self-splicing fitness (ln)", "setting": "30 °C", "value": "-1.66 ± 0.21"},
      {"measurement": "self-splicing fitness (ln)", "setting": "37 °C", "value": "-2.66 ± 0.37"}
    ]},
    {"sequence": "UUUGAGCAAUAUUACGUCGC", "values": [
      {"measurement": "self-splicing fitness (ln)", "setting": "30 °C", "value": "-3.06 ± 0.49"},
      {"measurement": "self-splicing fitness (ln)", "setting": "37 °C", "value": "-2.07 ± 0.47"}
    ]},
    {"sequence": "UUUGAGCAAUAUUACGUGUG", "values": [
      {"measurement": "self-splicing fitness (ln)", "setting": "30 °C", "value": "-3.37 ± 0.23"},
      {"measurement": "self-splicing fitness (ln)", "setting": "37 °C", "value": "-2.55 ± 0.33"}
    ]},
    {"sequence": "UUUUAGCAAUAUUACGAAAU", "values": [
      {"measurement": "self-splicing fitness (ln)", "setting": "30 °C", "value": "-2.34 ± 0.34"},
      {"measurement": "self-splicing fitness (ln)", "setting": "37 °C", "value": "-1.72 ± 0.27"}
    ]},
    {"sequence": "UUUUAGCAAUAUUACGACUG", "values": [
      {"measurement": "self-splicing fitness (ln)", "setting": "30 °C", "value": "-0.652 ± 0.097"},
      {"measurement": "self-splicing fitness (ln)", "setting": "37 °C", "value": "-0.152 ± 0.13"}
    ]},
    {"sequence": "UUUUAGCAAUAUUACGAGGG", "values": [
      {"measurement": "self-splicing fitness (ln)", "setting": "30 °C", "value": "-2.9 ± 0.42"}
    ]},
    {"sequence": "UUUUAGCAAUAUUACGAUAU", "values": [
      {"measurement": "self-splicing fitness (ln)", "setting": "30 °C", "value": "-2.66 ± 0.22"},
      {"measurement": "self-splicing fitness (ln)", "setting": "37 °C", "value": "-1.42 ± 0.28"}
    ]},
    {"sequence": "UUUUAGCAAUAUUACGCAUG", "values": [
      {"measurement": "self-splicing fitness (ln)", "setting": "30 °C", "value": "-1.3 ± 0.12"},
      {"measurement": "self-splicing fitness (ln)", "setting": "37 °C", "value": "-0.672 ± 0.13"}
    ]},
    {"sequence": "UUUUAGCAAUAUUACGCGCU", "values": [
      {"measurement": "self-splicing fitness (ln)", "setting": "30 °C", "value": "-2.57 ± 0.25"},
      {"measurement": "self-splicing fitness (ln)", "setting": "37 °C", "value": "-0.994 ± 0.21"}
    ]},
    {"sequence": "UUUUAGCAAUAUUACGGAAA", "values": [
      {"measurement": "self-splicing fitness (ln)", "setting": "30 °C", "value": "-1.73 ± 0.23"},
      {"measurement": "self-splicing fitness (ln)", "setting": "37 °C", "value": "-1.14 ± 0.34"}
    ]},
    {"sequence": "UUUUAGCAAUAUUACGGGCG", "values": [
      {"measurement": "self-splicing fitness (ln)", "setting": "30 °C", "value": "-0.356 ± 0.12"},
      {"measurement": "self-splicing fitness (ln)", "setting": "37 °C", "value": "-0.216 ± 0.19"}
    ]},
    {"sequence": "UUUUAGCAAUAUUACGGGUG", "values": [
      {"measurement": "self-splicing fitness (ln)", "setting": "30 °C", "value": "-1.65 ± 0.11"},
      {"measurement": "self-splicing fitness (ln)", "setting": "37 °C", "value": "-0.739 ± 0.14"}
    ]},
    {"sequence": "UUUUAGCAAUAUUACGGUGA", "values": [
      {"measurement": "self-splicing fitness (ln)", "setting": "30 °C", "value": "-0.38 ± 0.15"},
      {"measurement": "self-splicing fitness (ln)", "setting": "37 °C", "value": "0.0249 ± 0.14"}
    ]},
    {"sequence": "UUUUAGCAAUAUUACGUAAU", "values": [
      {"measurement": "self-splicing fitness (ln)", "setting": "30 °C", "value": "-3.62 ± 0.28"},
      {"measurement": "self-splicing fitness (ln)", "setting": "37 °C", "value": "-1.6 ± 0.22"}
    ]},
    {"sequence": "UUUUAGCAAUAUUACGUAUG", "values": [
      {"measurement": "self-splicing fitness (ln)", "setting": "30 °C", "value": "-2.01 ± 0.19"},
      {"measurement": "self-splicing fitness (ln)", "setting": "37 °C", "value": "-0.735 ± 0.2"}
    ]},
    {"sequence": "UUUUAGCAAUAUUACGUCAA", "values": [
      {"measurement": "self-splicing fitness (ln)", "setting": "30 °C", "value": "-2.59 ± 0.17"},
      {"measurement": "self-splicing fitness (ln)", "setting": "37 °C", "value": "-1.34 ± 0.13"}
    ]},
    {"sequence": "UUUUAGCAAUAUUACGUCCG", "values": [
      {"measurement": "self-splicing fitness (ln)", "setting": "30 °C", "value": "-2.37 ± 0.34"},
      {"measurement": "self-splicing fitness (ln)", "setting": "37 °C", "value": "0.963 ± 0.33"}
    ]},
    {"sequence": "UUUUAGCAAUAUUACGUCCU", "values": [
      {"measurement": "self-splicing fitness (ln)", "setting": "37 °C", "value": "0.494 ± 0.32"}
    ]},
    {"sequence": "UUUUAGCAAUAUUACGUGCA", "values": [
      {"measurement": "self-splicing fitness (ln)", "setting": "30 °C", "value": "-2.12 ± 0.17"},
      {"measurement": "self-splicing fitness (ln)", "setting": "37 °C", "value": "-1.11 ± 0.18"}
    ]},
    {"sequence": "UUUUAGCAAUAUUACGUGGC", "values": [
      {"measurement": "self-splicing fitness (ln)", "setting": "30 °C", "value": "-3.09 ± 0.42"}
    ]},
    {"sequence": "UUUUAGCAAUAUUACGUGGU", "values": [
      {"measurement": "self-splicing fitness (ln)", "setting": "30 °C", "value": "-3.72 ± 0.35"},
      {"measurement": "self-splicing fitness (ln)", "setting": "37 °C", "value": "-3.24 ± 0.42"}
    ]},
    {"sequence": "UUUUAGCAAUAUUACGUUGA", "values": [
      {"measurement": "self-splicing fitness (ln)", "setting": "37 °C", "value": "-1.8 ± 0.36"}
    ]},
    {"sequence": "UUUUAGCAAUAUUACGUUGG", "values": [
      {"measurement": "self-splicing fitness (ln)", "setting": "30 °C", "value": "-2.07 ± 0.21"},
      {"measurement": "self-splicing fitness (ln)", "setting": "37 °C", "value": "-2.23 ± 0.32"}
    ]}
  ]
}
